Data on four molecules can be found in patent US20250352667A1.

Residue numbers refer to the chain shown, from its start. Names may count otherwise.

Assay [1] has as its target KEAP1 (wild-type full-length), His-tagged (human) (UniProt Q14145). Nature of the assay: AlphaScreen; 2.4 nM FLAG-NRF2, 150 nM His-KEAP1; Rep 2; control for I28V. Background: In Alpha technology, singlet oxygen from a donor bead excites a nearby acceptor bead.
The target is the same in assay [2]. Nature of the assay: AlphaScreen; NRF2 wt isoform 1 38.4 nM, KEAP1 150 nM; set as the 100 % reference for Q75R.
The target is the same in assay [3]. Nature of the assay: AlphaScreen; 4.8 nM FLAG-NRF2, 150 nM His-KEAP1; signal against NRF2 only; control for I28V.
For assay [4] the target is unchanged. Nature of the assay: AlphaScreen, all variants on one plate; average of three conditions, KEAP1 150 nM; the reference itself.
Assay [5] has the same target. Nature of the assay: AlphaScreen; FLAG-NRF2 wt isoform 1 76.8 nM, His-KEAP1 150 nM; Rep 1; positive control for Q75R.
For assay [6] the target is unchanged. Nature of the assay: AlphaScreen; FLAG-NRF2 wt isoform 1 153.6 nM, His-KEAP1 150 nM; Rep 1; positive control for Q75R.
The target is the same in assay [7]. Nature of the assay: AlphaScreen; mean over 9.6, 19.2 and 38.4 nM NRF2 wt isoform 1, KEAP1 150 nM; reference for I86V.
The target is the same in assay [8]. Nature of the assay: AlphaScreen, all variants on one plate; lower condition (9.6 nM NRF2), KEAP1 150 nM; the reference itself.
Assay [9] has the same target. Nature of the assay: AlphaScreen; mean over 9.6, 19.2 and 38.4 nM NRF2 wt isoform 1, KEAP1 150 nM; reference for Q75R.
Assay [10] shares this target. Nature of the assay: AlphaScreen; FLAG-NRF2 wt isoform 1 76.8 nM, His-KEAP1 150 nM; Rep 2; positive control for Q75R.
Assay [11] shares this target. Nature of the assay: AlphaScreen, all variants on one plate; optimal condition (19.2 nM NRF2), KEAP1 150 nM; the reference itself.
The target is the same in assay [12]. Nature of the assay: AlphaScreen; 1228.8 nM FLAG-NRF2, 150 nM His-KEAP1; signal against NRF2 only; control for I86V.
The target is the same in assay [13]. Nature of the assay: AlphaScreen; FLAG-NRF2 wt isoform 1 38.4 nM, His-KEAP1 150 nM; Rep 2; positive control for I86V.
The target is the same in assay [14]. Nature of the assay: AlphaScreen; average ± standard deviation over three NRF2 concentrations, KEAP1 150 nM; relative to wild-type NRF2 isoform 1.
Assay [15] has the same target. Nature of the assay: AlphaScreen; FLAG-NRF2 Q75R 2.4 nM, His-KEAP1 150 nM; Rep 2.
The target is the same in assay [16]. Nature of the assay: AlphaScreen, all variants on one plate; average of three conditions ± standard deviation, KEAP1 150 nM; relative to NRF2 (WT) isoform 1.
For assay [17] the target is unchanged. Nature of the assay: AlphaScreen; NRF2 Q75R 2.4 nM, KEAP1 150 nM; signal against NRF2-only control.
Assay [18] shares this target. Nature of the assay: AlphaScreen; NRF2 Q75R 19.2 nM, KEAP1 150 nM; signal against NRF2-only control.
Assay [19] shares this target. Nature of the assay: AlphaScreen, all variants on one plate; lower condition (9.6 nM NRF2), KEAP1 150 nM; relative to NRF2 (WT) isoform 1.
Assay [20] shares this target. Nature of the assay: AlphaScreen; NRF2 Q75R 38.4 nM, KEAP1 150 nM; signal against NRF2-only control.
The target is the same in assay [21]. Nature of the assay: AlphaScreen, all variants on one plate; upper condition (38.4 nM NRF2), KEAP1 150 nM; relative to NRF2 (WT) isoform 1.
For assay [22] the target is unchanged. Nature of the assay: AlphaScreen, all variants on one plate; optimal condition (19.2 nM NRF2), KEAP1 150 nM; relative to NRF2 (WT) isoform 1.
For assay [23] the target is unchanged. Nature of the assay: AlphaScreen; FLAG-NRF2 Q75R 2.4 nM, His-KEAP1 150 nM; Rep 1.
Assay [24] shares this target. Nature of the assay: AlphaScreen; FLAG-NRF2 I86V 38.4 nM, His-KEAP1 150 nM; Rep 2.
Assay [25] shares this target. Nature of the assay: AlphaScreen; NRF2 I86V 38.4 nM, KEAP1 150 nM; signal against NRF2-only control.
Assay [26] shares this target. Nature of the assay: AlphaScreen; NRF2 I86V 614.4 nM, KEAP1 150 nM; signal against NRF2-only control.
Assay [27] has the same target. Nature of the assay: AlphaScreen; 4.8 nM FLAG-NRF2, 150 nM His-KEAP1; signal against NRF2 only.

KEAP1 (wild-type full-length), His-tagged (human), sequence (Q14145 2-624 limits assumed): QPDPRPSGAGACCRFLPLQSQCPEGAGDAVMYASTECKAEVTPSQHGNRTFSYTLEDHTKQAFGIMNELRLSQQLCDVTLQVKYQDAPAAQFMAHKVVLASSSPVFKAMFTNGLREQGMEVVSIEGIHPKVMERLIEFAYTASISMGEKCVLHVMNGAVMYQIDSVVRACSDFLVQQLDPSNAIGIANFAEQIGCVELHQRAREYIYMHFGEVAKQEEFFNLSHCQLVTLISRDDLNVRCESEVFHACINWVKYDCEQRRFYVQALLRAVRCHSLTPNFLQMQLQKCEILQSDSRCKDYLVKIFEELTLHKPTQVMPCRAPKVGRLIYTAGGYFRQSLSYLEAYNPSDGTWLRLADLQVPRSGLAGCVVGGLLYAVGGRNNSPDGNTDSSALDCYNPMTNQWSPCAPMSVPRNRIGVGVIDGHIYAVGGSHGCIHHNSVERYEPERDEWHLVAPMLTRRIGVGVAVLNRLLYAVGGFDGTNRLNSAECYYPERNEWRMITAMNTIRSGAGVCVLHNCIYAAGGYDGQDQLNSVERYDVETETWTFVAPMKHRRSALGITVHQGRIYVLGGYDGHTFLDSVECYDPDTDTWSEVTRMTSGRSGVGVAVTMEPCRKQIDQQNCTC

B1: NRF2 isoform 1 (wild-type full-length), FLAG-tagged (protein)
chain: MMDLELPPPGLPSQQDMDLIDILWRQDIDLGVSREVFDFSQRRKEYELEKQKKLEKERQEQLQKEQEKAFFAQLQLDEETGEFLPIQPAQHIQSETSGSANYSQVAHIPKSDALYFDDCMQLLAQTFPFVDDNEVSSATFQSLVPDIPGHIESPVFIATNQAQSPETSVAQVAPVDLDGMQQDIEQVWEELLSIPELQCLNIENDKLVETTMVPSPEAKLTEVDNYHFYSSIPSMEKEVGNCSPHFLNAFEDSFSSILSTEDPNQLTVNSLNSDATVNTDFGDEFYSAFIAEPSISNSMPSPATLSHSLSELLNGPIDVSDLSLCKAFNQNHPESTAEFNDSDSGISLNTSPSVASPEHSVESSSYGDTLLGLSDSEVEELDSAPGSVKQNGPKTPVHSSGDMVQPLSPSQGQSTHVHDAQCENTPEKELPVSPGHRKTPFTKDKHSSRLEAHLTRDELRAKALHIPFPVEKIINLPVVDFNEMMSKEQFNEAQLALIRDIRRRGKNKVAAQNCRKRKLENIVELEQDLDHLKDEKEKLLKEKGENDKSLHLLKKQLSTLYLEVFSMLRDEDGKPYSPSEYSLQQTRDGNVFLVPKSKKPDVKKN
Molecule B1 yielded an A-counts in assay [1] of 628 A-counts. The molecule also came in with a Binding Percentage in assay [2] of 100%. Moreover, the S/N in assay [3] stood at 3.2; in assay [12], 1. In addition, the % Disruption in Binding (Reported Values) in assay [4] came to 0%. In addition, the A-counts (NRF2 plus KEAP1) in [5] was determined as 1490 A-counts; in [6] it was 1380 A-counts; in assay [10], 1420 A-counts; in assay [13] it was 2850 A-counts. The Average Binding in assay [7] and in assay [9] was 100% throughout. Also, the % Disruption in Binding in assay [8] and in [11] was 0% in each case.

B2: NRF2 isoform 1 (Q75R full-length), FLAG-tagged (protein)
chain: B1 chain with Q75R
On to B2, for which the Reported Value (reduction in binding) in assay [14] is 30.2%. Also, the A-counts (NRF2 plus KEAP1) in [15] is 566 A-counts; in [23], 588 A-counts. Moreover, the % Disruption in Binding (Reported Values) in [16] was determined as 27.5%. The S/N in assay [17] is 2; in assay [18], 2.5; in assay [20] it was 2.4. Further, the % Disruption in Binding in assay [19] worked out at 29.3%; in assay [21] it was 25.1%; in assay [22] it was 28.3%.

B3: NRF2 isoform 1 (I86V full-length), FLAG-tagged (protein)
chain: B1 chain with I86V
In assay [14], B3 yielded a Reported Value (reduction in binding) of 3.2%. In addition, the A-counts (NRF2 plus KEAP1) in [24] turned out to be 2920 A-counts. The same molecule returned a % Disruption in Binding (Reported Values) in [16] of 8.4%. The S/N in assay [25] was 2.9; in [26], 1.1. Also, the % Disruption in Binding in [19] was found to be 5.7%; in assay [21], 10.5%; in assay [22], 9.2%.

B4: NRF2 isoform 1 (I28V full-length), FLAG-tagged (protein)
chain: B1 chain with I28V
B4 displayed a S/N in assay [27] of 2.9. The molecule further came in with a % Disruption in Binding (Reported Values) in assay [16] of 20.3%. Besides, the results for the % Disruption in Binding in assay [19], in assay [21] and in assay [22] were 16.7%, 21.5% and 22.6%, respectively.
